As a reminder, the Km is the concentration of substrate that gives half-maximal velocity. Broadly, the kcat is the number of substrate molecules converted per active site and unit of time at saturation.

Substrate in series [1]: O=c1[nH]c(=O)[nH]c(=O)[nH]1
The series can be described thus: purified protein. Particulars: 50.0 °C. The class given is biochemical, Bradyrhizobium diazoefficiens.

Substrate in series [2]: O=c1[nH]c(=O)[nH]c(=O)[nH]1
The series can be described thus: purified protein. The class given is biochemical, Pseudolabrys sp. Root1462. To be noted: 50.0 °C.

B1: CAH-BD (Bradyrhizobium diazoefficiens USDA 110) (protein)
chain: MRTTSVGVFKIVTKGPGDVSGLMAMIGSGAIDPKSILAVLGKTEGNGGVNDFTREYAVAALCTALAPQLGLSPEEVEQRIAFVMSGGTEGVLSPHITVFTRREVERRPAGLSGKRLSIGMAHTRDFLPEELGRAAQIAETAAAVKAAMADAGIADPADVHFVQIKCPLLTSDRVEAASARGNKTATTSAYGSMAYSRGASALGVAVALGETGSDISDGDVLRRYDLFSKVASTSAGIELMHNVVIVLGNSAASASEFEIGHAVMNDAIDAAAVTSALKCVGLGVAPQAEAGRELVNIFAKAEASPDGSVRGFRHTMLEDTDISSTRHARAAVGGLIAGLAGTGAVYVSGGAEHQGPAGGGPVAVIARLSD
notes: codon-optimised gene expressed in Bacillus subtilis, purified; no tag mentioned
Take B1: in the series “purified protein [1]”, the Km amounted to 103 ± 29 µM and the kcat was determined as 10.6 ± 1.9 s⁻¹.

B2: CAH-PR (Pseudolabrys sp. Root1462) (protein)
chain: MPIAKVHRISASSPNDVSGLEAAIASGRIDPKGVIAVLGKTEGNGLVNDFSRGLATTALTLLFERHLPQAEAAQICLVMSGGTEGGMAPHWIVFERGKGEGGRSPALAIGRAHTLQLPYEQLGRLGEVDQVAAGVRAAMEDAGIADPADVHFVQIKCPLLTAQRIAEAEARGAAVATRDTLKSMSLSRAASALGAAVALGEIDRAAITEAQIGSDWSLWSGRASTSAGIELVNHEIVVLGMSKDWSGPLAIDHAVMRDGIDIEPVRAALQRLGLGAAGQLDPAQRNKMVALLAKAEASHDGRLRGHRHTMLDDSDIASTRHARGFVCGALAGLVGHAEIYVSGGAEHQGPDGGGPVAVIVDRG
notes: as for B1
As to B2, in “purified protein [2]”, the Km amounted to 115 ± 36 µM and the kcat is 10.1 ± 2.7 s⁻¹.

(Values after paper PMC9118981.)
